# Assay results as given in the Immune Epitope Database (IEDB).
# Assays:
# Test in all cases: IEDB peptide-MHC binding, purified MHC/competitive/radioactivity; filed as Kd, often an IC50 or EC50 that approximates it; ≥ and ≤ were set here for values at or beyond the usual limits of such assays
# HLA-A*11:01 = target: HLA-A*11:01
# HLA-A*68:01 = target: HLA-A*68:01
# HLA-A*33:01 = target: HLA-A*33:01
# HLA-A*03:01 = target: HLA-A*03:01
# HLA-A*31:01 = target: HLA-A*31:01
# HLA-A*02:06 = conditions: source organism: Dengue virus 2 Jamaica/1409/1983
# [1] = source organism: Mammarenavirus whitewaterense
# [2] = source organism: Vaccinia virus WR
# [3] = source organism: SARS coronavirus Tor2
# [4] = source organism: Mammarenavirus juninense
Sequence,Kd (HLA-A*11:01; [2]) [nM],Kd (HLA-A*68:01; [2]) [nM],Kd (HLA-A*33:01; [2]) [nM],Kd (HLA-A*03:01; [2]) [nM],Kd (HLA-A*31:01; [2]) [nM],other results
SRIFEELVWK,,,,,,Kd (HLA-A*11:01; [1]): 259 nM; Kd (HLA-A*68:01; [1]): 477 nM; Kd (HLA-A*33:01; [1]): ≥ 52000 nM; Kd (HLA-A*03:01; [1]): 200 nM; Kd (HLA-A*31:01; [1]): 3640 nM
SSKGLACYR,80.4,5.33,25.6,12800,37.6,
SVKTQFNYFK,,,,,,Kd (HLA-A*11:01; [3]): 21.1 nM; Kd (HLA-A*68:01; [3]): 80 nM; Kd (HLA-A*33:01; [3]): 808 nM; Kd (HLA-A*03:01; [3]): 144 nM; Kd (HLA-A*31:01; [3]): 24.1 nM
SVPLPCQLMY,38,14400,≥ 53100,413,≥ 23200,
TAIAKCNLDH,,,,,,Kd (HLA-A*11:01; [1]): ≥ 69700 nM; Kd (HLA-A*68:01; [1]): 7070 nM; Kd (HLA-A*33:01; [1]): ≥ 34200 nM; Kd (HLA-A*03:01; [1]): ≥ 70000 nM; Kd (HLA-A*31:01; [1]): 929 nM
TFIDVHIPK,0.921,11.4,1.05,187,2.36,
TIEILRNYLR,48.5,1.62,27.7,2350,21.1,
TIKYSNDNR,228,3,116,15500,19.6,
TILEYLYIMR,2060,167,2300,8990,987,
TIQRFSSLR,8.93,4.86,5.54,5210,0.55,
TISSESLVY,10.7,619,5450,21,10200,
TLNGIMMNER,1330,743,1460,226,108,
TQSVLCVKK,6.64,228,≥ 67900,1040,1010,
TSRTLSYYK,,,,,,Kd (HLA-A*11:01; [3]): 160 nM; Kd (HLA-A*68:01; [3]): 840 nM; Kd (HLA-A*33:01; [3]): 2400 nM; Kd (HLA-A*03:01; [3]): 450 nM; Kd (HLA-A*31:01; [3]): 179 nM
TVKPGNFNK,,,,,,Kd (HLA-A*11:01; [3]): 33 nM; Kd (HLA-A*68:01; [3]): 122 nM; Kd (HLA-A*33:01; [3]): 1000 nM; Kd (HLA-A*03:01; [3]): 81.5 nM; Kd (HLA-A*31:01; [3]): 41.6 nM
VCFHEFLSSK,,,,,,Kd (HLA-A*11:01; [4]): 4500 nM; Kd (HLA-A*68:01; [4]): 14400 nM; Kd (HLA-A*33:01; [4]): ≥ 70000 nM; Kd (HLA-A*03:01; [4]): 3470 nM; Kd (HLA-A*31:01; [4]): 1530 nM
VFCNDHKGNR,≥ 69800,4090,1880,≥ 53200,428,
VLPHLCLDY,421,15000,1990,102,7820,
VQADSGCVV,,,,,,Kd (HLA-A*02:06): 79.6 nM
VSAKQLRTR,2730,1050,13400,12700,286,
VTGFMEEEIK,7.06,1220,≥ 33900,13300,10700,
VVNARLRAK,,,,,,Kd (HLA-A*11:01; [3]): 130 nM; Kd (HLA-A*68:01; [3]): 8180 nM; Kd (HLA-A*33:01; [3]): ≥ 24900 nM; Kd (HLA-A*03:01; [3]): 13.8 nM; Kd (HLA-A*31:01; [3]): 199 nM
WLHECTDESR,≥ 69800,273,254,≥ 70100,6230,
WSRIGTAATK,1070,786,≥ 70000,101,≥ 28900,
YISRDELWAR,792,32.4,0.808,≥ 25600,1.75,
YIYKSGKLVK,36,539,7860,7.74,7800,
YMSALNHTK,,,,,,Kd (HLA-A*11:01; [3]): 48.4 nM; Kd (HLA-A*68:01; [3]): 3.43 nM; Kd (HLA-A*33:01; [3]): 1120 nM; Kd (HLA-A*03:01; [3]): 108 nM; Kd (HLA-A*31:01; [3]): 642 nM
